Legend:
[1] = Deoxyribose (TBA-MDA) assay; assay type: biochemical; details: 2 mg/ml RoxP, 37° C., 1 h
Experimental: Deoxyribose assay is a well-established method to measure generation of hydroxyl radicals in biological systems and for evaluating the ability of antioxidants to reduce .OH radical generation. Such assays are described for example in Gutteridge & Halliwell (Biochem J. 1988, vol. 253(3), 932-933) and references therein. In particular, deoxyribose incubated with H2O2 and Fe2^+ (or Fe3^+ plus a reductant) is degraded into products that can react to form thiobarbituric acid-malondialdehyde (classic TBA-MDA assay) chromogen. This reaction is driven by —OH radicals. A reduction in prevalence of .OH radicals will result in fewer formed complexes and lower absorbance.
A reaction mixture containing 5 mM 2-deoxyribose, 100 μM FeCl3, 100 μM EDTA, 1 mM H2O2, and 7.6 μg/ml ascorbic acid in buffer A (20 mM KH2PO4—KOH, pH 7.4), including or not 2 mg/ml RoxP, in triplicate, was incubated at 37° C. for 1 h (total volume 1 ml). After incubation, 1% w/v TBA (thiobarbituric acid) in 50 mM NaOH, and 2-8% v/v TCA (trichloroacetic acid) was added, followed by incubation at 95° C. for 15 minutes, and reading of absorbance at 532 nm.

Phenantroline assay = assay type: biochemical; details: 10 μg or 20 μg RoxP
Experimental: Phenantroline chelates specifically Fe^2+ and generates absorbance at 550 nm.
A reaction mixture containing 0.7 mM ammonium iron (II) sulfate hexahydrate (from 1.4 mM working solution in PBS) or 0.5 mM ammonium iron (III) sulfate dodecahydrate (from 1.0 mM working solution in PBS); and further containing 10 μg or 20 μg RoxP (from 2 mg/ml RoxP working solution in PBS) or equivalent volume of PBS as control; and further containing 0.75 mM phenatroline (from 5 mM working solution in PBS); total volume 200 μl; was incubated for 15 minutes at room temperature. Absorbance was read at 550 nm.

healthy subjects = experiment: UVA/UVB-irradiation study in human subjects: skin color a* (erythema) by Chromameter; assay type: in vivo; details: topical, 1.25 MED UV, n=7
Experimental: The objective of this study was to assess the UV-protection potential of three compositions containing RoxP in 7 healthy subjects by measuring the antioxidative effect and skin erythema. Oxidative stress was induced by exposition to UVA- and UVB-light to the skin on the upper back. The anti-oxidative activity of the test products was evaluated by measurement of sebum lipid oxidization levels (concentration of squalene monohydroperoxide) of swab-samples from the skin surface. The potential was assessed after two applications of RoxP in comparison to water, an untreated control and one hydrophilic standard antioxidant (H1) after induction of a light sunburn (1.25 MED). […] Additionally, the UV-protection potential of the products was evaluated by measuring the produced erythema (Chromameter). […]
Erythema was evaluated (Chromameter) at t1=baseline before irradiation, t2=30 to 50 minutes after irradiation, and t3=16 to 24 hours after irradiation. Squalene monohydroperoxide (SQOOH) was quantified at 25 to 45 minutes after irradiation. […]
On Day 2, subjects returned to the Study Site 20±4 hours after irradiation. […] The reading of the MED was performed and the irradiation time for 1 MED was determined. The correct dose for the irradiation of test areas was calculated by multiplying the irradiation dose of 1 MED with the factor for irradiation (1.25). […]

B1: RoxP: radical oxygenase of Propionibacterium acnes, secreted antioxidant protein of C. acnes; SEQ ID NO: 1 for strain KPA171202 (protein)
chain: MFVQIAASLAAASSIALGIPGAATPIDESQLPVGPQVSVTDSAQHTGPFAASSPLTITVKPGAPCVRADGYQESMVTRVLDDKGHQVWTGTFDESKLIGGTGLGTATFHVGSPAAAFNFHGSERTTYRTLSYCAYPHYVNGTRERLSQVSVKTFMVDPALN
modifications: Cutibacterium acnes
**Q.** With B1 as the molecule, how does the “absorbance at 532 nm (generation of .OH radicals)” value [1] read?
**A.** Its value is “reduced”.

**Q.** What about the “reduction of Fe^3+ to Fe^2+ (absorbance at 550 nm)” value (Phenantroline assay; 0.5 mM ammonium iron (III) sulfate, 15 minutes) of the same molecule?
**A.** The value was “reduced Fe^3+ to Fe^2+”.

**Q.** And the “effect on reaction when only Fe^2+ was present” value (Phenantroline assay; 0.7 mM ammonium iron (II) sulfate)?
**A.** The value was “did not affect”.

**Q.** And the “increase of skin color a* (median)” value (healthy subjects; during 24 hours, water control 6 units)?
**A.** Its value is 3.4 units.

**Q.** And the “erythema 30-50 min after UV irradiation” value (healthy subjects)?
**A.** Its value is “less erythrema than the water control”.
